Experimental findings from patent publication US20130115208A1 are described below.

As usually defined, the Kd is the concentration at which binding is half-saturated. Low values mean tighter binding, high ones weaker binding.

In the assay the target is human-FcRn (neonatal Fc receptor) (human) (UniProt P55899). In words: SPR (ProteOn XPR36), IgG amine-coupled on reaction spots, human FcRn injected in kinetic titration, pH 6.0.
Chain of UniProt P55899 (P55899 24-297 limits assumed, chain 1 of 2): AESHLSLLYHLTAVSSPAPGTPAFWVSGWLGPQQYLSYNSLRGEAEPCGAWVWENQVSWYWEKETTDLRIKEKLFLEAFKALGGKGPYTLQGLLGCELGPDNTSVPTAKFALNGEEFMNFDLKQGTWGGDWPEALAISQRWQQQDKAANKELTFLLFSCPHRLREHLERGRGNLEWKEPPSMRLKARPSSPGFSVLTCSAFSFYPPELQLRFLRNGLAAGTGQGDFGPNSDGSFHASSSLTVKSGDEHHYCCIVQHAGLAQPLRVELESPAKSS
Chain of UniProt P55899 (P61769 21-119 limits assumed, chain 2 of 2, further chain): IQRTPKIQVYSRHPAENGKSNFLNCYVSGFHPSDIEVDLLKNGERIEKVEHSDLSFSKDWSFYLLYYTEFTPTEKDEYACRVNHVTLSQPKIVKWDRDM

The molecule hIgG2ΔA (control) (antibody) showed a Kd of 983 nM.

B1: hIgG2.EEE.L368E.Ab1.Ab1/hIgG2.RRR.K409R.Ab2.Ab2 (bispecific antibody, part only; not given: Variable regions and light chains, not shown: another chain or arm of the molecule)
constant 1: ASTKGPSVFPLAPCSRSTSESTAALGCLVKDYFPEPVTVSWNSGALTSGVHTFPAVLQSSGLYSLSSVVTVPSSNFGTQTYTCNVDHKPSNTKVDKTVERKCEVECPECPAPPVAGPSVFLFPPKPKDTLMISRTPEVTCVVVDVSHEDPEVQFNWYVDGVEVHNAKTKPREEQFNSTFRVVSVLTVVHQDWLNGKEYKCKVSNKGLPSSIEKTISKTKGQPREPQVYTLPPSREEMTKNQVSLTCEVKGFYPSDIAVEWESNGQPENNYKTTPPMLDSDGSFFLYSKLTVDKSRWQQGNVFSCSVMHEALHNHYTQKSLSLSPGK
constant 2: ASTKGPSVFPLAPCSRSTSESTAALGCLVKDYFPEPVTVSWNSGALTSGVHTFPAVLQSSGLYSLSSVVTVPSSNFGTQTYTCNVDHKPSNTKVDKTVERKCRVRCPRCPAPPVAGPSVFLFPPKPKDTLMISRTPEVTCVVVDVSHEDPEVQFNWYVDGVEVHNAKTKPREEQFNSTFRVVSVLTVVHQDWLNGKEYKCKVSNKGLPSSIEKTISKTKGQPREPQVYTLPPSREEMTKNQVSLTCLVKGFYPSDIAVEWESNGQPENNYKTTPPMLDSDGSFFLYSRLTVDKSRWQQGNVFSCSVMHEALHNHYTQKSLSLSPGK
B1 displayed a Kd of 600 nM.
